Test [1] has as its target T1, Human full length B7-H3 (human, UniProt Q5ZPR3 29-534).
T1 construct: On 3T12 fibroblasts expressing full length human B7-H3 or on NCI-H1650 cells; signal peptide residues 1-28 stated; also called huB7-H3; CD276
T1 sequence: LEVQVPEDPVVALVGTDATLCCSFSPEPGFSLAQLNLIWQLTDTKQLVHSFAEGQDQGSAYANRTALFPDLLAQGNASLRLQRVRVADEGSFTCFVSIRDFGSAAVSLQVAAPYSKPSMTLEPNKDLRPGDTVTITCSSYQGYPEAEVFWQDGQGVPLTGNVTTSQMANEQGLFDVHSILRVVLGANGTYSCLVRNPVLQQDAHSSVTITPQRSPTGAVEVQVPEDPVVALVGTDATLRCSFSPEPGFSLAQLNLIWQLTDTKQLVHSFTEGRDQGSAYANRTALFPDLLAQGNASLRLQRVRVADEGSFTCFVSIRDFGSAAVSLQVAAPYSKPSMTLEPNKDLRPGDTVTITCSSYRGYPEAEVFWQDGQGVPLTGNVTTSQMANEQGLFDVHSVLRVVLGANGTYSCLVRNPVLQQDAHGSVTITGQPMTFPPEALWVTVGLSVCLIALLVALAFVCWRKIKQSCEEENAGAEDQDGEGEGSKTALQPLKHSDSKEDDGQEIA
The test is described as follows: FACS, cell surface human B7-H3 (as Example 6). The protocol:
(§1) Cells were harvested from flasks when approximately 80% confluent using Gibco® Cell Dissociation Buffer. Cells were washed once in PBS/1% FBS (FACS buffer) then resuspended at 2.5×10⁶ cells/mL in FACS buffer. 100 μL of cells/well were added to a round bottom 96-well plate. 10 μL of a 10× concentration of mAb/ADC (final concentrations are indicated the figures). Wells were washed twice with FACS buffer and resuspended in 50 μL of secondary Ab (AlexaFluor 488) diluted in FACS buffer. The plate was incubated at 4° C. for one hour and washed twice with FACS buffer. Cells were resuspended in 100 μL of PBS/1% formaldehyde and analyzed on a Becton Dickinson LSRII flow cytometer. Data was analyzed using WinList flow cytometry analysis software.
Nine anti-B7-H3 chimeric antibodies were conjugated to the Bcl-xL inhibiting (Bcl-xLi) synthon CZ (Example 2.1) using conjugation Method A described below. The resulting ADCs (anti-B7-H3 antibodies conjugated to synthon CZ) were tested for binding to cell surface human B7-H3 by FACS (as described in Example 6) and for cell cytotoxicity in cell lines expressing B7-H3. […] Table 6 provides cell surface binding and cytotoxicity activity of anti-B7-H3 chimera ADCs against breast cancer cell HCC38 expressing human B7-H3.
On the technique in general: A flow cytometer gives signals particle by particle.

Test [2] deals with T2, Human B7-H3-ECD (His tag) (human, UniProt Q5ZPR3 29-461).
T2 construct: SPR analyte; also called huB7-H3; soluble ECD of human B7-H3
T2 sequence: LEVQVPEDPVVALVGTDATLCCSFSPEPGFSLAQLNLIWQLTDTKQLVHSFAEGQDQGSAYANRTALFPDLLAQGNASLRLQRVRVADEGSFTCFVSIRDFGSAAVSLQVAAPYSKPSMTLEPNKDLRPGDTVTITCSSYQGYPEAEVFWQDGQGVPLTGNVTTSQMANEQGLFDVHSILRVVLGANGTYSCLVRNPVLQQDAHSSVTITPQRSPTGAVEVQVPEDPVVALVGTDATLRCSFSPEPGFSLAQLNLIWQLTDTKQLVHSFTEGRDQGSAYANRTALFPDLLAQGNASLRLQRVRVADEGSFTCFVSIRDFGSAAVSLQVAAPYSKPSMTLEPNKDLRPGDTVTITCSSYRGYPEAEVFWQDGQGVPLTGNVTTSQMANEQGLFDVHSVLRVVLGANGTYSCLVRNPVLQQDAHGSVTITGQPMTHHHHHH
The test is described as follows: SPR Biacore, naked mAb. The text has this:
(§2) Biacore T200 SPR instruments were used to measure the binding kinetics of human B7-H3 (analyte) binding to various mAbs (ligands). The assay format was Fc-based capture via immobilized anti-mouse (Fc) (Pierce 31170) or immobilized anti-human (Fc) (Pierce 31125). A standard amine coupling protocol was employed to immobilize the capture reagents via primary amines to the carboxy-methyl (CM) dextran surface of CM5 sensorchips (Biacore); capture antibodies were coupled to a level of approximately 5000RU. For binding kinetic measurements the assay buffer was HBS-EP+ (Biacore): 10 mM Hepes, pH7.4, 150 mM NaCl, 3 mM EDTA, 0.05% polysorbate 20. During the assay, all measurements were referenced against the capture surface alone. Each assay cycle consisted of the following steps: 1) Capture of ligand to approximately 50RU; 2) Analyte injection over both reference and test surface, 240 μL at 80 μL/min, after which the dissociation was monitored for 900 seconds at 80 μL/min; 3) Regeneration of capture surface with low pH glycine. […] Data were processed and fit to a 1:1 binding model using Biacore T200 Evaluation Software to determine the binding kinetic rate constants, kₐ (on-rate) and kd (off-rate), and the equilibrium dissociation constant (affinity, KD).
These variants were further characterized for binding by SPR and as ADCs conjugated to the Bcl-xL inhibitor synthon (linker warhead) CZ. […] An ADC comprising chAb3 conjugated to synthon CZ was used as a control.
(In SPR one partner is held on a chip, and binding of the other changes the refractive index at the surface.)

Test [3] deals with T1, Human full length B7-H3. Briefly: FACS, NCI-H1650 cells. The method, then:
To generate purified chimeric antibodies, expression vectors were transiently transfected into HEK293 6E suspension cell cultures in a ratio of 60% to 40% light to heavy chain construct. 1 mg/ml of polyethylenimine (PEI) or 2.6 μL/mL of Expifectamine was used to transfect the cells. Cell supernatants were harvested after five days in shaking flasks, spun down to pellet cells, and filtered through 0.22 μm filters to separate IgG from culture contaminants. Antibody-containing supernatants were purified on Akta Pure using protein A mAb SelectSure. Columns were equilibrated in PBS pH 7.4, supernatants were then passed through the column and a wash was performed with PBS pH 7.4. IgG were eluted with 0.1 M acetic acid pH 3.5 and collected in several aliquots. Fractions containing IgG were pooled and dialyzed in PBS overnight at 4° C.
as §1

Test [4] has as its target T2, Human B7-H3-ECD (His tag). The test is described as follows: SPR Biacore, naked mAb.
Text: as §2
(§3) The parental chAb18 from which the variants were derived was also tested as a comparator.
This is another data set of the same source.

Test [5] addresses T1, Human full length B7-H3. The test is described as follows: FACS (Example 6 method). The protocol:
as §1, §3

Usually EC50 stands for the concentration that produces a half-maximal response. A higher EC50 goes with a need for much substance. For orientation: Kd means a measure of binding affinity in units of concentration. Lower therefore signals tighter binding.

Residue numbers refer to the chain shown, from its start. Where two headings read alike, the source gives them in different places.

B1: chAb2-CZ (antibody, IgG1, V domains shown)
VH: QVQLQQPGAELVKPGASVKLSCKASGYTFTSYWMHWVKQRPGQGLEWIGMIHPDSGTTNYNEKFRSKATLTVDKSSSTAYMQLSSLTSEDSAVYYCAVYYGSTYWYFDVWGTGTTVTVSS
VL: DVVMTQTPLSLPVSLGDQAYISCRSSQSLVHINGNTYLHWYRQKPGQSPKLLIYKVSNRFSGVPDRFSGSGSGTDFTLKISRVEAEDLGVYFCSQSTHFPFTFGSGTKLEIK
modifications: synthon CZ on reduced interchain Cys
Regarding B1, the EC50 in test [1] is 2.6 nM.

B2: huAb3v1 (antibody, V domains shown)
VH: EVQLVQSGAEVKKPGSSVKVSCKASGYTFSSYWMHWVRQAPGQGLEWMGLIHPDSGSTNYNEMFKNRVTITADKSTSTAYMELSSLRSEDTAVYYCARGGRLYFDYWGQGTTVTVSS
VL: DIVMTQSPLSLPVTPGEPASISCRSSQSLVHSNGDTYLRWYLQKPGQSPQLLIYKVSNRFSGVPDRFSGSGSGTDFTLKISRVEAEDVGVYYCSQSTHVPYTFGGGTKVEIK
notes: humanized IgG
The molecule B2 yielded a Kd in test [2] of 0.52 nM.

B3: huAb3v5 (antibody, V domains shown)
VH: B2 VH with M48I, V68A, I70L, A72V, K74R, R98G
VL: B2 VL with I2V
notes: humanized IgG
Regarding B3, the Kd in test [2] came out at 0.23 nM.

B4: chAb14 (antibody, IgG1, V domains shown)
VH: EVKLVESGGGLVKPGGSLKLSCAASGFTFSSYGMSWVRQTPEKRLEWVATISGGGTNTYYPDSVEGRFTISRDNAKNFLYLQMSSLRSEDTALYYCARHYGSQTMDYWGQGTSVTVSS
VL: DIQMTQSPASLSASVGETVTITCRTSGNIHNYLTWYQQKQGKSPQLLVYNAKTLADGVPSRFSGSGSGTQFSLKINSLQPEDFGSYYCQHFWSIMWTFGGGTKLEIK
notes: chimeric, huIgG1/k
In turn, B4 returned an EC50 in test [3] of 0.81 nM.

B5: chAb14-CZ (antibody, IgG1, V domains shown)
VH: B4 VH
VL: B4 VL
modifications: synthon CZ on reduced interchain Cys
In the case of B5, the response in test [1] was half-maximal at 0.5 nM (EC50). That is a sub-nanomolar value.

B6: chAb18 (antibody, IgG1, V domains shown)
VH: QVQLQQSAAELARPGASVKMSCKASGYSFTSYTIHWVKQRPGQGLEWIGYINPNSRNTDYNQKFKDETTLTADRSSSTAYMQLISLTSEDSAVYYCARYSGSTPYWYFDVWGAGTTVTVSS
VL: QIVLTQSPAILSASPGEKVTMTCRASSSVSYMNWYQQKPGSSPKPWIYATSNLASGVPARFSVSVSGTSHSLTISRVEAEDAATYYCQQWSSNPLTFGAGTKLELK
notes: chimeric, huIgG1/k
In test [3], B6 had an EC50 of 1.14 nM. The molecule also returned a Kd in test [4] of 0.17 nM.

B7: chAb18-CZ (antibody, IgG1, V domains shown)
VH: B6 VH
VL: B6 VL
modifications: synthon CZ on reduced interchain Cys
With B7, the EC50 in test [5] stood at 1.14 nM; in test [1], 1.78 nM.

B8: chAb4-CZ (antibody, IgG1, V domains shown)
VH: QVQLQQPGAELVKPGASVKLSCKASGYSFTSYWMHWVKQRPGQGLEWIGMIHPNSGSNNYNEKFKSKATLTVDKSSNTAYMQLSSLTSEDSAVYYCARRLGLHFDYWGQGTTLTVSS
VL: DIVMTQSQKFMSTPVGDRVSITCKASQNVGTAVAWYQQKPGQSPKLLIYSASNRYTGVPDRFTGSGSGTDFTLTISNMQSEDLADYFCQQYSSYPYTFGGGTKLEIK
modifications: synthon CZ on reduced interchain Cys
B8 yielded an EC50 in test [1] of 0.54 nM.

B9: chAb11-CZ (antibody, IgG1, V domains shown)
VH: EVKLVESGGGLVQPGGSLRLSCATSGFTFTNYYMSWVRQPPGKALEWLGFIRNKANDYTTEYSASVKGRFTISRDNSQSILYLQMNTLRAEDSATYYCARESPGNPFAYWGQGTLVTVSA
VL: DIVMTQSPSSLTVTAGEKVTMTCKSSQSLLNSGTQKNFLTWYQQKPGQPPKLLIYWASTRESGVPDRFTGSGSGTDFTLTISSVQAEDLAVYFCQNDYIYPLTFGAGTKLELK
modifications: synthon CZ on reduced interchain Cys
For B9, in test [1], the EC50 came out at 1.12 nM.

B10: chAb6 (antibody, IgG1, V domains shown)
VH: QVQLQQSGAELMKPGASVKISCKATGYTFSRYWIEWVKQRPGHGLEWIGEILPGSGSTNYNEKFKGKATFTADTSSNTAYMQVSSLTSEDSAVHYCARRGYGYVPYALDYWGQGTSVTVSS
VL: EIQMTQTTSSLSASLGDRVTISCRASQDISNSLNWYQQKPDGTVNLLIYYTSRLYSGVPSRFSGSGSGTDYSLTISNLEQEDIATYFCQQGNTLPYTFGGGTKLEIK
notes: chimeric, huIgG1/k
In test [3], B10 gave a concentration giving a half-maximal response (EC50) of 0.33 nM.

B11: chAb16-CZ (antibody, IgG1, V domains shown)
VH: EVKLLESGGGLVQPGGSLKLSCAASGFDFSRYWMSWVRQAPGKGLEWIGEINPDSSTINYTPSLKDKFIISRDNAKNTLYLQMSKVRSEDTALYYCARPGFGNYIYAMDYWGQGTSVTVSS
VL: B10 VL with E1D, S22N, S32F, N45K, S56L, Y96P
modifications: synthon CZ on reduced interchain Cys
Regarding B11, the EC50 in test [1] came to 0.62 nM.

B12: chAb16 (antibody, IgG1, V domains shown)
VH: B11 VH
VL: B10 VL with E1D, S22N, S32F, N45K, S56L, Y96P
notes: chimeric, huIgG1/k
In test [3], B12 showed an EC50 of 0.27 nM. In other words, the sub-nanomolar range.

B13: chAb6-CZ (antibody, IgG1, V domains shown)
VH: B10 VH
VL: B10 VL
modifications: synthon CZ on reduced interchain Cys
In test [1], B13 gave an EC50 of 0.56 nM.

The record behind these values is patent US20170355769A1 (AbbVie / Abbott, published 2017).
